One may read the Kd as the constant that tells how readily two partners part at equilibrium.

The target in one series is T1, squid p32 (AUF1 homolog) (Aedes albopictus (cDNA from C6/36 cells), UniProt A0A023EP16 2-301).
T1 sequence: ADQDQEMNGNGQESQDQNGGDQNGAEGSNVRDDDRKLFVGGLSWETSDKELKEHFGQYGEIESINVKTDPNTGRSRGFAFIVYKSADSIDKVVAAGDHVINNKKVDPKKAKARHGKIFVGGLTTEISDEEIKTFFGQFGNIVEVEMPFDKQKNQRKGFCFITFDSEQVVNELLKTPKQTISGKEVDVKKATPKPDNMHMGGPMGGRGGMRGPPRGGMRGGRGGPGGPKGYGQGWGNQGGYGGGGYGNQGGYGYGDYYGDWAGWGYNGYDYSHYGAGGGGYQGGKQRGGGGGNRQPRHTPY
The series is described as follows: fluorescence intensity titration. Particulars: protein: recombinant; tags: none after cleavage (SUMO fusion removed by SUMO protease).

A further series deals with T2, squid p30 (AUF1 homolog) (Aedes albopictus (cDNA from C6/36 cells), UniProt A0ABM1XVA0 2-281).
T2 sequence: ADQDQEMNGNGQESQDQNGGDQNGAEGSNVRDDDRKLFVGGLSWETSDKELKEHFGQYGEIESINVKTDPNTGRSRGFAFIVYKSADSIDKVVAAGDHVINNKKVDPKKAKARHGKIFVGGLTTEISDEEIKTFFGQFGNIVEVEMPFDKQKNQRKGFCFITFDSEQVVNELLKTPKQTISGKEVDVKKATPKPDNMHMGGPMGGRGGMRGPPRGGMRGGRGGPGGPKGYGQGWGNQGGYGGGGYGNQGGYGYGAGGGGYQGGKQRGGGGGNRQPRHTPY
The series is described as follows: fluorescence intensity titration. The following applies: protein: recombinant; tags: none after cleavage (SUMO fusion removed by SUMO protease).

In the case of CUAAGAUGCUCGCUGC (ssRNA) [random RNA], the Kd with squid p32 (AUF1 homolog) stood at 630 nM; with squid p30 (AUF1 homolog), 250 nM.
As for UAUUUAGUGGUGUUAG (ssRNA) [AU/GU-rich RNA], the values for the Kd with squid p32 (AUF1 homolog) and in the series with squid p30 (AUF1 homolog) were 130 nM and 13 nM, respectively.
